Assay results: publication PMC10917357, “Specific protein-RNA interactions are mostly preserved in biomolecular condensates”

How the values were obtained:
PTBP1 (C250S/C251S) [1] = biological target: T1, PTBP1 (C250S/C251S) (Homo sapiens, UniProt P26599-1 1-531, C250S;C251S); experiment: UV cross-linking MS (LLPS-CLIR-MS); dispersed and condensed phases; RRM cross-links (H411, H457); Assay buffers largely not in the material; N protein in 20 mM sodium phosphate pH 6.0, 50 mM NaCl (fig. S7 dispersed mimic 300 mM NaCl); UV 254 nm; turbidity of N at room temperature; NMR 303 or 310 K; settings: protein: recombinant; label: 13C/15N-labeled and unlabeled 1:1; single strand
FUS = FUS (UniProt P35637 1-526); experiment: UV cross-linking MS (LLPS-CLIR-MS); 0.075 and 0.1 eq RNA, 20 uM FUS; RRM (M321, Y325) and region C-terminal to ZnF; Assay buffers largely not in the material; N protein in 20 mM sodium phosphate pH 6.0, 50 mM NaCl (fig. S7 dispersed mimic 300 mM NaCl); UV 254 nm; turbidity of N at room temperature; NMR 303 or 310 K; settings: protein: recombinant; tags: GB1-His6 removed by TEV; label: isotope-labeled; two hairpins
[2] = biological target: SARS-CoV-2 nucleocapsid (N) (SARS-CoV-2, UniProt P0DTC9 1-419); experiment: UV cross-linking MS (LLPS-CLIR-MS); Assay buffers largely not in the material; N protein in 20 mM sodium phosphate pH 6.0, 50 mM NaCl (fig. S7 dispersed mimic 300 mM NaCl); UV 254 nm; turbidity of N at room temperature; NMR 303 or 310 K; settings: protein: recombinant; tags: N-terminal His6 removed by TEV; chain copies: 2; label: 18O4-ATP post-digestion labeling; hairpin with internal loops
PTBP1 (C250S/C251S) [3] = biological target: T1, PTBP1 (C250S/C251S); experiment: UV cross-linking MS (LLPS-CLIR-MS); dispersed and condensed phases; Assay buffers largely not in the material; N protein in 20 mM sodium phosphate pH 6.0, 50 mM NaCl (fig. S7 dispersed mimic 300 mM NaCl); UV 254 nm; turbidity of N at room temperature; NMR 303 or 310 K; settings: protein: recombinant; label: isotope-labeled; hairpin

## GGGAGAUCUCUAAAAAUCUCUAAAAAUCUCUAAAAA (ssRNA) [3xUCUCU]
PTBP1 (C250S/C251S) [1]
  binding result: binds

B1: U1-SL34 (structured_RNA)
RNA: GGGAUCCGAUUUCCCCAAAUGUGGGAAACUCGACUGCAUAAUUUGUGGUAGUGGGGGACUGCGUUCGCGCUUUCCCCUG
FUS
  binding result: binds

## GGUUCACCGAGGCCACGCGGAGUACGAUCGAGUGUACAGUGAACC (structured_RNA) [s2m]
[2]
  binding result: binds

## GGGGGACUGCGUUCGCGCUUUCCC (structured_RNA) [U1-SL4]
PTBP1 (C250S/C251S) [3]
  binding result: binds
